Source: the RNAGym collection of RNA variant scans (doi:10.1073/pnas.2313332121)

B1: TPR t1 (parent)
chain: GACCAAUCUGCCCUCAGAGCUCGAGAACAUCUUCGGAUGCAGAGGAGGCAGGCUUCGGUGGCGCGAUAGCGCCAACGUCCUCAACCUCCAAUGCAUCCCACCACAUGAUGAUGCCUGAAGAGCCUUGGUUUUUUG

Variants of: B1
Test: polymerase ribozyme fitness, log enrichment relative to wild type (log ratio); higher = more active; in vitro selection for triplet polymerase activity
Method in brief: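 Frozen incubation at −7 °C formed the core of a single, triplicate in vitro selection round applied to PCR-built, transcribed mutant libraries of each subunit of a heterodimeric triplet polymerase ribozyme. Extended constructs were gel-excised, captured with streptavidin beads and amplified by RT-PCR, and input and output libraries were Illumina-sequenced with a filter of ≥10 input reads and ≥1 read per output. Fitness is the logarithm of genotype enrichment relative to wild-type enrichment, with inverse-variance-weighted replicate averaging, and the logarithm is base 2.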

Compared with GACCAAUCUGUCCUAAGAGCUCGAGAACAUCUUCGGAUCCAGAGGAGGCAGGCUUCGGUGCCGCGAUAGCGCCAACGUCCUCAACCUCCAAUGCAUCCCACCACAUGAUGAUGACUGAAGAGCCUUGGUUUUUUG [C11U C15A G39C G61C C114A], GACCAAUCUGUCCUGAGAGCUCGAGAGCAUCUUCGGAUGCAGAGGAGGCAGGCUUCGGUGGCGCGAUAGCGCCAACGUCCUCAACCUCCAAUGGAUCCCACCACAUGACAAUGCCUGAUAAGCCUUGGUUUUUUG [C11U C15G A27G C94G U109C G110A A119U G120A] is lower in “polymerase ribozyme fitness (log ratio)” value: -5.39 for the first, -7.62 for the second.

Compared with GACCAAUCUGUCCUGAGAGCUCGAGAACAUCUUCGGAUGCAGAGGAGGCAUGCUUCGGUGGCGCGAUAGCGCCAACGUCCUCAACCUCCAAUGCAUCCCACCACAUGAUGAUGCCUGAGGAGCCUUGGUUUUAUG [C11U C15G G51U A119G U133A], GACCAAUCUGUCCUUCGAGCUCGAGAACAUCUUCGGAUGCAAAGGAGGCAGGCUUCGGUGGCGCGAUAGCGCCAACGUCCUCAACCUCCAAUGCAUCCCACCACAUGAUGAUGCCUGAAGAGCCUUGGUUUUUUG [C11U C15U A16C G42A] is lower in “polymerase ribozyme fitness (log ratio)” value: -2.44 for the first, -2.92 for the second.

Compared with GACCAAUCUGUCCUCAGAGAUCGAGAACAUCUUCGGAUGCACAGGAGGCAGGCUUCGGUGGCGCGAUAGCGCCAACGUCCUCAACCUCCAAUGCAUCCCACUACAUGAUGACGCCUGAAGAGCGUUGGUUUUUUG [C11U C20A G42C C102U U112C C124G], GACCAAUCUGUCCUCAGAGGUCGAGAACAUCUUCGGAUGCAGAGGAGGCAGGCUUCGGUGGCGCGAUAGCGCCAACGUCCUCAACCUCCAAUGCAUCCCACCACAUGAUGAUGCCUUAAGAGCCUUGGUUUUUUG [C11U C20G G117U] is higher in “polymerase ribozyme fitness (log ratio)” value: -5.12 for the first, -4.42 for the second.

First: GACCAAUCUGUCCUCAGAGGUCGAGAACAUCUUCGGAUGCAGAGGAGGCAGGCUUCGGUGGCGCGAUAGCGCCAACGUCCUCAACCUCCAAUGCAGCCCACCACAUGAUGAUGCCUGAAGAGUCUUGGUUUUUUG [C11U C20G U96G C123U]
Second: GACCAAUCUGUCCUCAGAGUUCGAGAACAUCUUCGGAUGCAGAGGAGGCAGGCUUCGGUGGCACGAUAGCGCCAACGUCCUCAACCCCCAAUGCAUCCCACCACAUGAUGAUGCCUGAAGAGCCUUGGUUUUUUG [C11U C20U G63A U87C]
The “polymerase ribozyme fitness (log ratio)” value of the first is lower: -2.94 for the first, -1.21 for the second.

Compared with GACCAAUCUGUCCUCAGAGCUAGAGAACAUCUUCGGAUGCAGAGGAGGCAGGCUUCGGUGGCGCGAUAGCGCCAACGUCCUCAACCUCCAAUGCAUCCCACCACAUGAUGAUGCCUGAAGAGCCUUGGUUUUUUG [C11U C22A], GACCAAUCUGUCCUCAGAGCUUGAGAACAUCUUCGGAUGCAGAGGAGGCAGGCUUCGGUGGCGCGAUAGCGCCAACGUCCUCAACCUCCAAUGCAUCCCACCACAUGAUGAUGCCUGAAGAGCCUUGGUUUUUUG [C11U C22U] is higher in “polymerase ribozyme fitness (log ratio)” value: -4.84 for the first, -4.2 for the second.

GACCAAUCUGUCCUCAGAGCUCGAGAAGAUCUUCGGGUGCAGAGGAGGCAGGCUUCGGUGGCGCGAUAGCGCCAACGUCCUCAACCUCCAAUGCAUCCCACCACAUGAUGAUGCCUGAAUAGCCUUGGUAUUUUG [C11U C28G A37G G120U U130A] and GACCAAUCUGUCCUCAGAGCUCGAGAAUAUCUUCGGAUGCAGAGGAGGCAGGCUUCGGUGGCGCGAUAGCGCCAACGUCCUUAACCUCCAAUGCAUCCCACCACAUGAUGAUGCCUGAAUAGCCUUGGUUUUUUG [C11U C28U C82U G120U] are within 0.2 log units of each other in “polymerase ribozyme fitness (log ratio)” value: -2.33 for the first, -2.14 for the second.

Compared with GACCAAUCUGUCCUCAGAGCUCGAGAACAUCUUGGGAUGCAGAGGAGGCAGGAUUCGGUGGCGCGAUAGCACCAACGUCCUCAACCUCCAAUGCAUCCCACCACAUGAUGAUGCCUGAAGAGCCUUGGUUUUUUG [C11U C34G C53A G71A], GACCAAUCUGUCCUCAGAGCUCGAGAACAUCUUUGGAUGCAGAGGAGGCAGGCUUCGGUGGCGCGAUAGCGCCAACGUCCUCAACCUCCAAUGCAUCCCACCACAUGAUGAUGCCUGAAGAGCCUUGGUUUUUUG [C11U C34U] is higher in “polymerase ribozyme fitness (log ratio)” value: -6.35 for the first, -3.97 for the second.

Going from GACCAAUCUGUCCUCAGAGCUCGAGAACAUCUUUGGAUGCAGAGGAGGCAGGCUUCGGUGGCGCGAUAGCACCAACGUCCUCAACCUCCAAUGCAUCCCACCACAUGAUGAUGCCUGAAGCGCCUUGGCUUUUUG [C11U C34U G71A A121C U129C] to GACCAAUCUGUCCUCAGAGCUCGAGAACAUCUUCGGAUGGAGAGGAGGAAGGCUGCGGUGACGCGAUAGCGCCAACGUCCUCAACCUCCAAUGCAUCCCACCACAUGAUGAUGCCUGAAGAGCCUUGGUUUUUUG [C11U C40G C49A U55G G61A], the “polymerase ribozyme fitness (log ratio)” value rises from -6.13 to -1.51.

First: GACCAAUCUGUCCUCAGAGCUCGAGAACAUCUUCGGAUGGAGAGGAGGCAGGCUUCGGUGCCGCGAUAGCGCCAACGUCCUCAACCUCCAAUGCAUCCCACCACAUGAUGAUGCCUGAUGAGCCUUGGUUUUUUG [C11U C40G G61C A119U]
Second: GACCAAUCUGUCCUCAGAGCUCGAGAACAUCUUCGGAUGUAGAGGAGGCAGGCUUCGGUUGCGCGAUAGCGCCAACCUCCUCAACCUCCAAUGCAUCCCACCACAUGAUGUUGCCUGAAGAGCCUUGGUUUUUUG [C11U C40U G60U G77C A111U]
The “polymerase ribozyme fitness (log ratio)” value of the first is higher: -2.64 for the first, -4.37 for the second.

First: GACCAAUCUGUCCUCAGAGCUCGAGAACAUCUUCGGAUGCAGAGGAGGAAGGCUUCGGUGGCGCGAUAGCGCCAACGUCCUCAACCUCCAAUGCAUCCCACCACAUGAUGAUGCCUGAAGAGCCUUGGUUUUUUG [C11U C49A]
Second: GACCAAUCUGUCCUCAGAGCUCGAGAACAUCUUCGGAUGCAGAGGAGGAAGGCUUCGGUGGCGCGAUAGCGCCAACGUCCUCAACCUCCAAUGCAUCCCACCACAUUAUGAUGCCUGAAAAGCCUUGGUUUUUUG [C11U C49A G107U G120A]
The “polymerase ribozyme fitness (log ratio)” value of the first is higher: -1.28 for the first, -4.45 for the second.

For GACCAAUCUGUCCUCAGAGCUCGAGAACAUCUUCGGAUGCAGAGGAGGAAGGCUCCGGUAGCGCGAUAGCGCCAACGUCCUCAACCAGCAAUGCCUCCCACCACAUGAUGAUGCCUGAAGUGCCUUGGUUUUUUG [C11U C49A U55C G60A U87A C88G A95C A121U], the “polymerase ribozyme fitness (log ratio)” value was -2.74.
